5 molecules from PMC8659110, “Preliminary Study of New Gallium-68 Radiolabeled Peptide Targeting NRP-1 to Detect Brain Metastases by Positron Emission Tomography” (Molecules, 2021) can be followed below.

Primed or numbered codes have the meaning given here. Where no end group is shown, it is not given here. Cy5 = Cy5 fluorophore (fluorescent dye); NODAGA′ = chelator

For test [1], the target named is T1, recombinant rat NRP-1 protein (rat, UniProt Q9QWJ9 22-855).
T1 construct: neuropilin-1 (NRP-1), rat, recombinant; printed MW 119 kDa; also called neuropilin-1; source: bought: Bio-techne
T1 sequence (looked up): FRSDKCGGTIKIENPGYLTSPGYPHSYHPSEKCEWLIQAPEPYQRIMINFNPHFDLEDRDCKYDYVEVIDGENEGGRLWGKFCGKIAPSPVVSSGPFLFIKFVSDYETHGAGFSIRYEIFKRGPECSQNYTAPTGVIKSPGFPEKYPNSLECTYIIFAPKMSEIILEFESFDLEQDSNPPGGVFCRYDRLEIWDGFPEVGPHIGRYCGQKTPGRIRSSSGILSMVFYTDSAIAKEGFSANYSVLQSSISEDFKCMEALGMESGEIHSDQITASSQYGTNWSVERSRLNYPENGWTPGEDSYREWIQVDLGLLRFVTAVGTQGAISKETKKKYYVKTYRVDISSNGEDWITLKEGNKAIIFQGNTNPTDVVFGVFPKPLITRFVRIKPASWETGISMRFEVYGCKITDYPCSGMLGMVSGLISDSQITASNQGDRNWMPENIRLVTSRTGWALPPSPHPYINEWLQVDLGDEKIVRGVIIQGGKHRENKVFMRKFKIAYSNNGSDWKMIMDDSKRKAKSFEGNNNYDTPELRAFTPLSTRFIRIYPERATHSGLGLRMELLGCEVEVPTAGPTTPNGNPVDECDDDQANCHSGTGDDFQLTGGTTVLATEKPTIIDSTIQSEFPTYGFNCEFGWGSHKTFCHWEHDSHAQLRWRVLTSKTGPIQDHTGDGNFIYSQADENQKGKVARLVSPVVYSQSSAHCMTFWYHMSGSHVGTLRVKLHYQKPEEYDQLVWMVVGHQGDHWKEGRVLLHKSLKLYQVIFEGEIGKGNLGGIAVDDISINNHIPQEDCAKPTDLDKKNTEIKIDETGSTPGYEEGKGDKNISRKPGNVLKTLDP
The experiment in a line: SPR; Biacore T200, 25 °C; rat NRP-1 covalently immobilised on CM5 chip (10,000 RU), IgG1 reference surface (4000 RU); PBS with 0.05% P20, pH 7.4; compounds 0.60-10 µM (scrambled peptides 10 and 30 µM, VEGF 12.5-400 nM) at 30 µL/min for 300 s; equilibrium response fitted to a 1:1 model; mean of two experiments. The note with it: both partners purified. On the technique in general: SPR reads the build-up and loss of mass on a sensor chip optically.

Test [2] has as its target T2, NRP-1 recombinant chimeric protein ( (recombinant human/rat NRP-1 …, UniProt O14786 22-856)).
T2 construct: 'Chimeric' probably means the supplier's Fc chimera; also called recombinant NRP-1 protein; the receptor; source: bought: Bio-techne
T2 sequence (looked up): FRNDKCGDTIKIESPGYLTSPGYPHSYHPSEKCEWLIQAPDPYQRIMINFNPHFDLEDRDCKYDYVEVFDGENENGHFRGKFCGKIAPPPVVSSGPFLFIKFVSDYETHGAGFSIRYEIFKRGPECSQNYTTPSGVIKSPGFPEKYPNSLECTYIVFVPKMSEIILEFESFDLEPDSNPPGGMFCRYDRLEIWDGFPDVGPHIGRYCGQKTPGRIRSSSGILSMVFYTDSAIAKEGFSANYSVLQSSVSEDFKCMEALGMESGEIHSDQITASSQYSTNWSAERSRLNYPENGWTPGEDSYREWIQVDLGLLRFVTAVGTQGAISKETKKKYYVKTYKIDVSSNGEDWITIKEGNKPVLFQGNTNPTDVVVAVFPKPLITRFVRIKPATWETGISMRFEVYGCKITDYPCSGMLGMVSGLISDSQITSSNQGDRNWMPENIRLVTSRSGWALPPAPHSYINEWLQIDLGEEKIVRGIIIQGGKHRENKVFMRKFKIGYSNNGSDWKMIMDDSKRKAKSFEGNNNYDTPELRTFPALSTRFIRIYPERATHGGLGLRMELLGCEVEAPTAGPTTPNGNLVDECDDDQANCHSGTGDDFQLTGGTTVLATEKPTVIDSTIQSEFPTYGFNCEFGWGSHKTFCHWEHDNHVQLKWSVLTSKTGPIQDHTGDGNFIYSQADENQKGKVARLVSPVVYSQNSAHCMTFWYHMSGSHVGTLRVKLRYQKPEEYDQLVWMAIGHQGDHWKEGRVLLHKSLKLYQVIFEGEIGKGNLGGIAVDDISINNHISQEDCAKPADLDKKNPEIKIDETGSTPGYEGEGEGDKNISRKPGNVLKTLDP
The experiment in a line: ELISA; competitive binding assay: NRP-1 recombinant chimeric protein coated on Maxisorp microplates; biotinylated VEGF-165 with heparin, with or without increasing concentrations of compounds; 2 h at room temperature; bound b-VEGF-165 detected with streptavidin-HRP, OD 450 nm; IC50 by one-site fit log-IC50. The note with it: both partners purified. (An ELISA detects its analyte on a solid surface through an enzyme-linked reagent.)

B1: ^natGa-NODAGA-K(Cy5)DKPPR (peptide)
peptide: {NODAGA′}-K(Cy5)DKPPR
modifications: also: NODAGA complexed with natGa
notes: KDKPPR with ^natGa-NODAGA on the N-terminal amine and Cy5 on the side chain of the first lysine; source: synthetic peptide (Fmoc/tBu/Dde solid phase; complexed with ^natGa(NO3)3, purified by preparative HPLC)
Usually Kd stands for the concentration at which binding is half-saturated. Take B1: the Kd in test [1] was found to be 4 µM. One may read the IC50 as the concentration that gives 50% inhibition. For the molecule H-KRPKPD-OH [KRPKPD scramble peptide], in test [2], the IC50 was 300 µM.

B2: ^natGa-NODAGA-K(Cy5)RPKPD (peptide)
peptide: {NODAGA′}-K(Cy5)RPKPD
modifications: also: NODAGA complexed with natGa
notes: scramble peptide KRPKPD with ^natGa-NODAGA on the N-terminal amine and Cy5 on the side chain of the first lysine; also called ^natGa-NODAGA-K(Cy5)scramble; source: synthetic peptide (Fmoc/tBu/Dde solid phase; complexed with ^natGa, purified by preparative HPLC)
As for B2, the IC50 in test [2] worked out at 177 µM.

B3: KDKPPR peptide (peptide)
peptide: KDKPPR
notes: also called KDKPPR free peptide; KDKPPR alone; source: synthetic peptide (Fmoc/tBu solid phase on Fmoc-Arg(Pbf)-Wang resin, precipitated in cold diethyl ether)
In the case of B3, in test [1], the Kd turned out to be 7 µM.

B4: K(Cy5)DKPPR (peptide)
peptide: K(Cy5)DKPPR
notes: KDKPPR with Cy5 on the side chain of the first lysine; source: synthetic peptide (solid phase with Fmoc-Lys(Cy5)-OH, purified by preparative HPLC)
Take B4: the Kd in test [1] was found to be 5 µM.
